Assay results reported in paper PMC5137110, “Relocation of active site carboxylates in major facilitator superfamily multidrug transporter LmrP reveals plasticity in proton interactions” (Scientific Reports, 2016).

Experiments:
LmrP = target: T1, LmrP (Lactococcus lactis, UniProt Q48658); assay: fluorescence anisotropy, purified protein titrated into propidium; format: binding; details: 50 mM KPi pH 7.0, 100 mM NaCl, 0.05% DDM; 0.2 or 1 μM propidium
T1 construct: full length, 408 residues; His6-tagged (His10-tagged for T331E); plasmid pNZ8084; expressed in L. lactis NZ9000 delta-lmrA delta-lmrCD

[1] = test system: CC[N+](C)(CC)CCC[n+]1c(-c2ccccc2)c2cc(N)ccc2c2ccc(N)cc21; assay: cells, lysate or membranes; format: cell-based, Lactococcus lactis; details: 50 mM KPi pH 7.0, 5 mM MgSO4, corrected for influx in cells without LmrP
[2] = test system: CC[n+]1c(-c2ccccc2)c2cc(N)ccc2c2ccc(N)cc21; assay: cells, lysate or membranes; format: cell-based, Lactococcus lactis; details: 50 mM KPi pH 7.0, 5 mM MgSO4, corrected for influx in cells without LmrP

| Compound | fluorescence anisotropy, purified protein titrated into propidium (LmrP) | Km [1] | Km [2] |
| --- | --- | --- | --- |
| CC[N+](C)(CC)CCC[n+]1c(-c2ccccc2)c2cc(N)ccc2c2ccc(N)cc21 [propidium] | propidium binding to purified T331E LmrP and WT LmrP was measured by fluorescence anisotropy |  |  |
| LmrP (Lactococcus lactis) |  | 1.3 ± 0.2 µM | 7.7 ± 5.1 µM |
